From patent publication US20140094415A1
Read-outs that look alike come from different tables or passages of the source. Where no end group is shown, it is not given here.

Key:
[1] = target: T1, HIS-PDZ1-2 protein (PSD-95 PDZ1-2 tandem) (human), P78352; experiment: fluorescence polarization, heterologous competition against AB143 probe
[2] = target: T1, HIS-PDZ1-2 protein (PSD-95 PDZ1-2 …); experiment: as above; remark: listed apart in the source
[3] = target: T1, HIS-PDZ1-2 protein (PSD-95 PDZ1-2 …); experiment: fluorescence polarization, saturation binding: increasing PDZ1-2 on 0.5 nM probe

| Binder | Ki [1] [nM] | Ki [2] [nM] | Kd [3] [nM] |
| --- | --- | --- | --- |
| IETAV (modifications not checked) [NPEG4(IETAV)2 (AB141)] | 9.3 | 9.5 | – |
| IETAV (modifications not checked) [PEG4(IETAV)2 (AB125)] | – | 9.5 | – |
| IETAV (also: dimer: two IETAV chains on NPEG4 scaffold, 5-FAM label, position not given here) [5-FAM-labeled NPEG4(IETAV)2 probe, AB143] | – | – | 7.8 |
